T1: soluble human IL-4Rα (sIL-4Rα; PEPRO TECH, Catalog Number: 200-04R) (human, UniProt P24394 26-232)
T1 construct: Bought protein; also called shIL-4Rα; soluble hIL-4 Rα
T1 sequence: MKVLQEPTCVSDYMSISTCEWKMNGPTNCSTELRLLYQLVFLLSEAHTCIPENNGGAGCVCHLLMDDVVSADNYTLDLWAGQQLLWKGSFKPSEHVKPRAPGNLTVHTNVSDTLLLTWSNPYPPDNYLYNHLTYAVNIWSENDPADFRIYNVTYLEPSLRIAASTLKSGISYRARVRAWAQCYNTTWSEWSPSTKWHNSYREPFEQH


Target: T1, soluble human IL-4Rα (sIL-4Rα; PEPRO …)
Test: ELISA, coated sIL-4Rα, culture supernatant
Method: Sample to be tested: For each antibody of the present invention, 10 μl and 2 μl of the culture supernatant of Expi293 cells expressing the antibody after transient transfection (the medium was Expi293 Expression Medium, Invitrogen, Catalog Number: A1435102; suspension culture was performed for 4 days at 100 rpm in a 8% CO2 incubator) were respectively added to 990 μl and 998 μl of PBS to prepare antibody samples to be tested of 1:100 and 1:500 dilutions.
100 μl of 100 μg/ml sIL-4Rα solution was added to 9.90 ml of PBS, mixed up and down, and then an antigen coating buffer of 1.0 μg/ml was obtained. The prepared antigen coating buffer was added to a 96-well ELISA plate (Corning) with a volume of 100 μl per well. The 96-well ELISA plate was incubated overnight in a refrigerator at 4° C. On the next day, the solution therein was discarded, and PBS containing 2% BSA was added to the 96-well ELISA plate row by row with a volume of 300 μl per well. The 96-well ELISA plate was incubated for 2 hours in a refrigerator at 4° C. Then the PBS containing 2% BSA was discarded and the plate was washed 3 times with PBST. Diluted antibodies to be tested were sequentially added to the corresponding wells, while the normal cell culture supernatants, as negative control samples, were added too. Three duplicate wells were made for each sample with a volume of 100 μl per well. The ELISA plate was wrapped with preservative film (or covered) and incubated for 1 h at 10° C. in a constant temperature incubator. Subsequently, the 96-well ELISA plate was taken out, and the solution therein was discarded. After washing with PBST for 3 times, TMB solution (Solarbio, Catalog Number: PR1200) was added to the 96-well ELISA plate row by row with a volume of 100 μl per well. The 96-well ELISA plate was placed at room temperature for 5 minutes, and 2 M H2SO4 solution was added in immediately to terminate the reaction. The 96-well ELISA plate was placed in flexstation 3 (Molecular Devices), the values of OD450 were read, and the data were collected, calculated and analyzed. Results were expressed relative to the affinity of control antibody 1.

Binder | OD450/OD450 Control antibody 1
L1000H1007 (antibody, V domains shown) VH: EVQLVQSGGGLVHPGGSLRLSCAGSGFTFSRNAMFWVRQAPGKGLEWVSGIGTGGATSYADSVKGRFTISRDNAKNSLYLQMNSLRAEDMAVYYCARGRYYFDYWGQGTLVTVSS VL: not shown | 0.37 ratio to control antibody 1
L1000H1013 (antibody, V domains shown) VH: EVQLVESGGGLVHPGGSLRLSCAASGFTFSRNAMFWVRQAPGKGLEWVSGIGTGGATNYADSVKGRFTISRDNAKNSLYLQMNSLRAEDMAVYYCARGRYYFDYWGQGTLVTVSS VL: not shown | 0.38 ratio to control antibody 1
L1000H1020 (antibody, V domains shown) VH: EVQLVQSGGGLVHPGGSLRLSCAGSGFTFSRNAMFWVRQAPGKGLEWVSGIGTGGATSYADSVKGRFTISRDNAKNSLYLQMNSLRAEDMAVYYCARGRYYFPWWGQGTLVTVSS VL: not shown | 0.23 ratio to control antibody 1
L1000H1014 (antibody, V domains shown) VH: EVQLVQSGGGLVQPGGSLRLSCAASGFTFSRNAMFWVRQAPGKGLEWVSGIGTGGATNYADSVKGRFTISRDNAKNSLYLQMNSLRAEDMAVYYCARGRYYFDYWGQGTLVTVSS VL: not shown | 1.06 ratio to control antibody 1
L1000H1009 (antibody, V domains shown) VH: EVQLVESGGGLVHPGGSLRLSCAGSGFTFSRNAMFWVRQAPGKGLEWVSGIGTGGATNYADSVKGRFTISRDNAKNSLYLQMNSLRAEDMAVYYCARGRYYFDYWGQGTLVTVSS VL: not shown | 0.56 ratio to control antibody 1
L1000H1022 (antibody, V domains shown) VH: EVQLVQSGGGLVHPGGSLRLSCAGSGFTFSRNAMFWVRQAPGKGLEWVSGIGTGGATSYADSVKGRFTISRDNAKNSLYLQMNSLRAEDTAVYYCARGRYYFPWWGQGTLVTVSS VL: not shown | 0.18 ratio to control antibody 1
L1000H1016 (antibody, V domains shown) VH: EVQLVQSGGGLVHPGGSLRLSCAGSGFTFSRNAMFWVRQAPGKGLEWVSGIGTGGATNYADSVKGRFTISRDNAKNSLYLQMNSLRAEDMAVYYCARGRYYFPWWGQGTLVTVSS VL: not shown | 0.61 ratio to control antibody 1
L1000H1008 (antibody, V domains shown) VH: EVQLVQSGGGLVHPGGSLRLSCAGSGFTFSRNAMFWVRQAPGKGLEWVSGIGTGGATNYADSVKGRFTISRDNAKNSLYLQMNSLRAEDTAVYYCARGRYYFDYWGQGTLVTVSS VL: not shown | 0.21 ratio to control antibody 1
L1000H1021 (antibody, V domains shown) VH: EVQLVQSGGGLVHPGGSLRLSCAGSGFTFSRNAMFWVRQAPGKGLEWVSGIGTGGATNYADSVKGRFTISRDNAKNSLYLQMNSLRAEDTAVYYCARGRYYFPWWGQGTLVTVSS VL: not shown | 0.35 ratio to control antibody 1
L1000H1012 (antibody, V domains shown) VH: EVQLVQSGGGLVHPGGSLRLSCAGSGFTFSRNAMFWVRQAPGKGLEWVSGIGTGGATSYADSVKGRFTISRDNAKNSLYLQMNSLRAEDTAVYYCARGRYYFDYWGQGTLVTVSS VL: not shown | 0.18 ratio to control antibody 1
L1000H1001 (antibody, V domains shown) VH: EVQLVESGGGLVQPGGSLRLSCAASGFTFSRNAMFWVRQAPGKGLEWVSGIGTGGATSYADSVKGRFTISRDNAKNSLYLQMNSLRAEDTAVYYCARGRYYFPWWGQGTLVTVSS VL: not shown | 0.7 ratio to control antibody 1
L1000H1010 (antibody, V domains shown) VH: EVQLVQSGGGLVQPGGSLRLSCAGSGFTFSRNAMFWVRQAPGKGLEWVSGIGTGGATNYADSVKGRFTISRDNAKNSLYLQMNSLRAEDMAVYYCARGRYYFDYWGQGTLVTVSS VL: not shown | 0.11 ratio to control antibody 1
L1000H1015 (antibody, V domains shown) VH: EVQLVESGGGLVQPGGSLRLSCAGSGFTFSRNAMFWVRQAPGKGLEWVSGIGTGGATNYADSVKGRFTISRDNAKNSLYLQMNSLRAEDMAVYYCARGRYYFDYWGQGTLVTVSS VL: not shown | 0.65 ratio to control antibody 1
